Source: patent US20230227790

Target: component B (compB) protein (I53-50B)
Assay: SEC-HPLC after sub-surface pipette addition and orbital agitation overnight

B1: component A (compA) protein (I53-50A) fused to RSV antigen (protein)
chain: MEELFKKHKIVAVLRANSVEEAIEKAVAVFAGGVHLIEITFTVPDADTVIKALSVLKEKGAIIGAGTVTSVEQCRKAVESGAEFIVSPHLDEEISQFCKEKGVFYMPGVMTPTELVKAMKLGHTILKLFPGEVVGPQFVKAMKGPFPNVKFVPTGGVNLDNVCEWFKAGVLAVGVGSALVKGTPDEVREKAKAFVEKIRGCTE
  VLP assembly peak (% by HPLC): formation of the VLP assembly (50%)
